According to PMC11437124 (Nature Communications, 2024):
Where a chain is given by its changes, count along the chain named.

B1: R18-11-01 (antibody, V domains shown)
VH: AVQLVESGGGLVQPKESLKISCAASGFTFINAAIYWVRQAPGKGLEWVARIRTKPDNYATYYADSVKGRFTISRDDSKSMVYLQMHNLKTEDTAMYYCTAATTGIKFDYWGQGVMVTVSA
VL: DIVMTQSPSSLAVSAGETVTIDCKSSQSLLYSGNQKTYLAWYQQKPGQSPKLLIYWASTRQSGVPDRFIGSGSGTDFTLTISSVQAEDLAIYYCQQYYDTPLTFGSGTKLEIK
B2: R18-12-22 (antibody, V domains shown)
VH: AVQLVESGGGLVQPKESLKISCAASGFTFSNAAIYWVRQAPGKGLEWVARIRTKPNNYATYYADSVKGRFTISRDDSKSMVYLQMDNLKTEDTAMYYCTAGYYSGGPFAYWGQGTLVTVSS
VL: B1 VL
B3: R18-12-19 (antibody, V domains shown)
VH: B2 VH with I34M, A63T, G101E, Y102G, Y103S, G105R, G106N, P107W
VL: B1 VL
B4: R18-13-35 (antibody, V domains shown)
VH: AVQLVESGGGLVQPRESLKISCAASGFTFSNAAMYWVRQAPGKGLEWVARIRTKANNYATNYADSLKGRFIISRDDSKSVVYLQMGNLKPEDTAMYYCTAGDTMGPHWFVYWGQGTLVTVSS
VL: B1 VL
B5: R18-11-03 (antibody, V domains shown)
VH: AVQLVESGGGLVRPKESLKISCAASGFTFSNAAMYWVRQAPGKGLEWVARIRSKPNNYATHYADSVKGRFIISRDDSKGMVYLQMDNLKTEDTAKYYCTAAGGGYGFDDWGQGVMVTVSS
VL: B1 VL
B6: R18-11-13 (antibody, V domains shown)
VH: AVQLVESGGGLVQPKESLKISCAASGFTFSNVAMYWVRQAPRKGLEWVARIRTKPNNYATYYADSVKGRFTISRDDSKSMVYLQMDNLKTDDTAMYYCTAGVYYGSMDAWGQGTSVTVSS
VL: B1 VL
B7: R18-13-31 (antibody, V domains shown)
VH: AVQLVESGGGLVQPIESLKISCAASGFTFTNAAMYWVRQAPGKGLEWIARIRTKPNDYATYYADSVKGRFTISRDDSESVVYLQMDNLKTEDTATYYCTAAWDYYSSAFDYWGQGVMVTVSS
VL: B1 VL
B8: R18-13-27 (antibody, V domains shown)
VH: AVQLVESGGGLVQPKESLKISCAASGFTFSNAAMYWVRQAPGKGLEWVARIRTKPNYHATYYADSVKGRFTISRDDSKSMVYLQMDNLKAEDTAIYYCAASVLYTADSLDYWGQGVMVTVSS
VL: B1 VL
B9: R18-12-20 (antibody, V domains shown)
VH: AVQLVESGGGLVQPKESLKISCAASGFTLSTVAMYWVRQAPGKGLEWVARIRTKPNNYAIYYADSVKGRFTISRDDSKSMVYLQMDNLKTEDTAMYYCTAPGIIRAPFAYWGQGTLVTVSS
VL: B1 VL
B10: R18-12-14 (antibody, V domains shown)
VH: AVQLVESGGGLVQPKESLKISCAVSGFTFTNAAMYWVRQAPGKGLEWIARIRTQPNNYATYYADSVRGRFTTSRDDSKSMVYLQMDNLKTEDTAMYYCTAGRATGTPFDYWGQGVMVTVSS
VL: B1 VL
B11: R18-11-11 (antibody, V domains shown)
VH: AVQLVESGGGLVQPKESLKISCAASGFTFSNAAMHWVRQAPGKGLEWVARIRTRPNNYATYYADSVKGRFTISRDDSKSMVYLQMDNLKTEDTAMYYCTAGTGSSPFAYWGQGTLVTVSS
VL: B1 VL
B12: R18-11-07 (antibody, V domains shown)
VH: AVQLVESGGGLVQPKESLRISCAASGFTFSNAAMYWVRQAPGKGLEWVARIRTKPNSYAPYYADSVRGRFTISRDDSKSMVYLQMDNLKTEDTAMYYCTAGGNSGYSDYWGQGVMVTVSS
VL: B1 VL
B13: R18-12-21 (antibody, V domains shown)
VH: B2 VH with I20L, N31D, I34M, G101L, Y102F, Y103L, S104I, G105V, G106A
VL: B1 VL
B14: R18-13-32 (antibody, V domains shown)
VH: AVQLVESGGGLVQPKESLKISCAASGFTFSYAAMYWVRQAPGKGLEWVARIRSKPNNYATYYADSVKGRFTISRDDSKSMVYLQMDNLKTEDTAMYYCTAPYYYDGSPFEYWGQGVMVTVSS
VL: B1 VL
B15: R18-13-29 (antibody, V domains shown)
VH: AVQLVESGGGLVQPKESLKVSCAASGFTFSNADIYWVRQAPGKGLEWVARIRTKPNNYATYYGDSVKGRFTISRDDSKSMVYLQMDNLKTEDTAMYYCTAGEGLWVNYFDYWGQGVMVTVSS
VL: B1 VL
B16: R18-13-30 (antibody, V domains shown)
VH: AVQLVESGGGLVQPKESLKVSCAASGFTFSHAAMYWVRQAPGKGLEWVARITTEPNNYATNYADSVKGRFTISRDDSKSMVFLQMDNMKTEDTAMYYCTAEVRVYPYYFDYWGQGVMVTVSS
VL: B1 VL
B17: R18-11-10 (antibody, V domains shown)
VH: AVQLVESGGGVVRPKESLRISCAASGFTFSNVAMYWVRQAPGKGLEWVARIRTKPNNYATNYADSVKGRFTISRDDSNSMVNLQMENLKTEDTAMYYCTAVGGHNWFAYWGQGTLVTVSS
VL: B1 VL
B18: R18-13-28 (antibody, V domains shown)
VH: AVQLVESGGGLVQPKESLKISCAASGFTFSNAAMYWVRQAPGKGLEWVARIRTKTNNYATNYADSVKGRFTISRDDSKSMVYLQMDNLKTEDTAMYYCSAARGGWYLWLDYWGQGVMVTVAS
VL: B1 VL
B19: R18-11-12 (antibody, V domains shown)
VH: AVQLVESGGGLVQPKESVKISCAASGFTFSNAAMYWVRQAPGKGLEWIARIRSKPHNHATYYADSVKGRFTISRDDSESMVYLQMDNLKTEDTAMYYCTSDTGPNWFTYWGQGTLVTVSS
VL: B1 VL
B20: R18-11-08 (antibody, V domains shown)
VH: B11 VH with H35Y, R54K, G101A, T102Y, G103Y, S105G
VL: B1 VL
B21: R18-11-05 (antibody, V domains shown)
VH: AVQLVESGGGLVQPKASLKISCVASGFTFSKNAMYWVRQAPGKGLEWVARIRTKPNNYAAYYADSVKGRFTISRDDSESMVYLQMDNLKTEDTAMYYCTAGDFNSPFDFWGQGVMVTVSS
VL: B1 VL
B22: R18-11-04 (antibody, V domains shown)
VH: AVQLVESGGGLVQPKESLKISCAASGFTFSNAAMYWVRQAPGKGLEWVARIRTQPNNYATYYADSVKGRFTISRDDAKSMVYLQMDNLKTEDTAMYYCTAGTVEVTSTWWGQGVMVTVSS
VL: B1 VL
B23: R18-11-06 (antibody, V domains shown)
VH: AVQLVESGGGLVQPKESLKISCAASGFTFSNAAMYWVRQAPGKGLEWVARIRTQPNNYATYYADSVKGRFTISRDDSKSVVYLQMDNLKTADTAMYYCTAGYGYNLFDYWGQGVMVTVSS
VL: B1 VL
B24: R19-11-36 (antibody, V domains shown)
VH: AVQLVESGGGLVQPKESLKISCAAAGFTFTSAAMYWVRQAPGKGLEWIARIRTKADNIATNYADSVKGRFTISRDDSKNMVYLQMDDLKTEDTAMYYCTAGITTGGFEYWGQGVMVTVSS
VL: B1 VL
B25: R18-12-25 (antibody, V domains shown)
VH: AVQLVESGGGLVRPQESLKISCAASGFTFRDTAMYWVRQAPGKGLEWVARIRTKPNDYATYFADSVKGRFTISRDDSKSMVYLQMDTLKTEDTAMYYCTAPINNWDWFAYWGQGTLVTVSS
VL: B1 VL
B26: R18-12-24 (antibody, V domains shown)
VH: B2 VH with I34M, G101D, Y103S, G105Y, G106I, P107R
VL: B1 VL
B27: R18-12-18 (antibody, V domains shown)
VH: B2 VH with S30R, I34M, Y35F, Y58F, A100G, G101F, Y103N, S104D, G106A, A109D
VL: B1 VL
B28: R18-12-23 (antibody, V domains shown)
VH: AVQLVESGGGLVQPKESLKISCAASAFSFSNVAMYWVRQAPGKGLEWIARIRTKPNNYATYYADSVKGRFTISREDSKSMVYLQMDNLKTEDTATYYCTADNYPGGGFRYWGQGTLVTVSS
VL: B1 VL
B29: R18-11-02 (antibody, V domains shown)
VH: AVQLVESGGGLVQPKESLKISCAASGFTFSNAAMYWVRQAPGKGLEWVARIRTKPNNYATYYADSMKGRFTISRDDSKSMVYLQMGNLKTEDTAMYYCTAELITTAFDYWGQGVMVTVSS
VL: B1 VL
B30: R18-12-17 (antibody, V domains shown)
VH: AVQLVESGGGLVKPKESLKISCAASGFTFSNAAMYWVRQAPGKGLDWVARIRTKPYNYATFYADSVKGRFTISRDDSKNMVYLQMDNLKTEDTAVYYCTTDGEPRPRFAYWGQGTLVTVSS
VL: B1 VL

Biological target: human TREM2 extracellular domain (ECD) (Homo sapiens, UniProt Q9NZC2)
Sequence (Q9NZC2 19-174): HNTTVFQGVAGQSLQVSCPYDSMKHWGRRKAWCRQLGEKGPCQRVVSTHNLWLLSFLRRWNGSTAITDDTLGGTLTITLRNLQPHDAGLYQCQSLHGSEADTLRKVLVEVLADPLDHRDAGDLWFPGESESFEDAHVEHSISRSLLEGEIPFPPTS

Binding result, binds:
B1
B2
B3
B4
B5
B6
B7
B8
B9
B10
B11
B12
B13
B14
B15
B16
B17
B18
B19
B20
B21
B22
B23
B24
B25
B26
B27
B28
B29
B30
